Data reported in patent US20210277150A1.

Legend:
[1] = molecular target: FcgammaRIIIA (CD16a), F allotype (human) (UniProt P08637); test: SPR equilibrium fit; reference WT IgG1
[2] = molecular target: FcgammaRIIB (CD32b) (human) (UniProt P31994); test: SPR equilibrium fit; reference WT IgG1
Sequence of FcgammaRIIB (CD32b) (human) (P31994 43-217 limits assumed): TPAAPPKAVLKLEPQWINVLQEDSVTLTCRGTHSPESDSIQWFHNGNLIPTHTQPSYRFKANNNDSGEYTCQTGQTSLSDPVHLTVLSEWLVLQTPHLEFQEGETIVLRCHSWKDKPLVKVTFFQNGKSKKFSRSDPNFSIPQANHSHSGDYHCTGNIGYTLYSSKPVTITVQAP

Sequence of FcgammaRIIIA (CD16a), F allotype (human) (P08637 17-208 limits assumed): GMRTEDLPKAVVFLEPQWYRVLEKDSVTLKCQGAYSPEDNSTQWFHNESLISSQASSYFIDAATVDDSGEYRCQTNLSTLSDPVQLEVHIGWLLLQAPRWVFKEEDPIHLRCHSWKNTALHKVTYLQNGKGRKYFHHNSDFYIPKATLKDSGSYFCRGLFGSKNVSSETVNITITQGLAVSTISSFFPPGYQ

Control 2 (T366S_L368A_Y407V/T366W) (antibody)
Ratio WT/Variant of kD [1]: 1.1 | Ratio WT/Variant of kD [2]: 1.13

Control 1 (K409D_K392D/D399K_D356K) (antibody)
Ratio WT/Variant of kD [1]: 1.28 | Ratio WT/Variant of kD [2]: 1.68
